Assay results: patent US20150258192A1, “COMPOSITIONS AND METHODS FOR PREVENTING OR TREATING CHRONIC LUNG ALLOGRAFT DYSFUNCTION (CLAD) AND IDIOPATHIC PULMONARY FIBROSIS (IPF)” (priority 2014, published 2015)
No end group written: not given here.

Assays:
Test in all cases: Kinase Profiling Assay
Type in all cases: biochemical
Conditions in all cases: peptide 100 μM
Mer(h) = target: T1, Mer(h) (Homo sapiens, UniProt Q12866)
T1 construct: purchased Millipore
T1 sequence (Q12866 21-999): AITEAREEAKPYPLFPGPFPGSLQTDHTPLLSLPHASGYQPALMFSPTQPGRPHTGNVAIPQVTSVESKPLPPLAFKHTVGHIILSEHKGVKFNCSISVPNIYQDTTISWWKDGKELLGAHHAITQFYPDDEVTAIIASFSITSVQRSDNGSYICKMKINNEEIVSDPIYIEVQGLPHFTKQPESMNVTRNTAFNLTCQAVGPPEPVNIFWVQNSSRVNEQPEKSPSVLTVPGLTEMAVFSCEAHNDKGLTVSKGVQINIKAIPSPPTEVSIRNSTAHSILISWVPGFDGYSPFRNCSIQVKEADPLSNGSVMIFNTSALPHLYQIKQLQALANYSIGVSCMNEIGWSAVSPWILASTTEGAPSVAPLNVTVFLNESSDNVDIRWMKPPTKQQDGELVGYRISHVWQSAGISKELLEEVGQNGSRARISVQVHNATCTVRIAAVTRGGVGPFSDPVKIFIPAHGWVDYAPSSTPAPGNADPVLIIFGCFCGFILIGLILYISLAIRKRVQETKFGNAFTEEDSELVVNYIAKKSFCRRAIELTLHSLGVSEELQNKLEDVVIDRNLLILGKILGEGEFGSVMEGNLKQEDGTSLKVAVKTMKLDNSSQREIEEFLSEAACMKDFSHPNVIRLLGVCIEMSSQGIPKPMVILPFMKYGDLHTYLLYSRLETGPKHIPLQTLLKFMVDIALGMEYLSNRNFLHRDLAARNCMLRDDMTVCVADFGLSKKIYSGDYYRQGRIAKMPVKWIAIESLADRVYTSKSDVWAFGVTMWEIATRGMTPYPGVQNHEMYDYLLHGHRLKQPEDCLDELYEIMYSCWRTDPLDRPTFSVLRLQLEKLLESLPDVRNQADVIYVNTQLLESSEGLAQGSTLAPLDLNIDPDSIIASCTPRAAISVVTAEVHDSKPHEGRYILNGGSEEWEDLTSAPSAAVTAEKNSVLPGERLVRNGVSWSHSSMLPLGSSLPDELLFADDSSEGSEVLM
How it was run: (§1)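 Kinase inhibition by MK2 inhibitory peptides was profiled radiometrically, with substrate phosphorylation from labeled ATP read by scintillation after capture on a charged filter. Values are relative to 100% activity and measured in duplicate.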

mTOR(h) = target: T2, mTOR(h) (Homo sapiens, UniProt P42345)
T2 construct: purchased Millipore
How it was run: as §1

BrSK2(h) = target: T3, BrSK2(h) (Homo sapiens, UniProt Q8IWQ3)
T3 sequence (Q8IWQ3 1-736): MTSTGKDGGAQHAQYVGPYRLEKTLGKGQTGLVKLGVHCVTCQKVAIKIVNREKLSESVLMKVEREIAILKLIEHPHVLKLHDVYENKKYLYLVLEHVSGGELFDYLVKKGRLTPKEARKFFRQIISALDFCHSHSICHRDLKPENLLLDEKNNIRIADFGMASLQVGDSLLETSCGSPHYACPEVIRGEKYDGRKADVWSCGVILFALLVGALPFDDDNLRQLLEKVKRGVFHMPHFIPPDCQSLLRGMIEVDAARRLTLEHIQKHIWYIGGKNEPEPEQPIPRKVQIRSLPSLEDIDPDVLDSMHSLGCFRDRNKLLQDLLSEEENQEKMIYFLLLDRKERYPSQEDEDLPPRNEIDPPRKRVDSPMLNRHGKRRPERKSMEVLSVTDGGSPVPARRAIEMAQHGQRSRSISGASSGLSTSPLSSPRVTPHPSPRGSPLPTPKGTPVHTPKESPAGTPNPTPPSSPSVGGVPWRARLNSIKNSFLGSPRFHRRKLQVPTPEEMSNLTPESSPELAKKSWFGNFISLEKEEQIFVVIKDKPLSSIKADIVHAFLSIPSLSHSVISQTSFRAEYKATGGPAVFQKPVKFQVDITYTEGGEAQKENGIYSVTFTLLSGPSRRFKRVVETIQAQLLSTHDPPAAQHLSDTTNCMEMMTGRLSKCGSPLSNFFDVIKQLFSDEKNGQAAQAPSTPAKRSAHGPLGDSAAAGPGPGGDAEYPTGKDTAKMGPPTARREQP
How it was run: as §1

TrkA(h) = TrkA(h) (Homo sapiens, UniProt P04629)
How it was run: as §1

Pyk2(h) = Pyk2(h) (Homo sapiens, UniProt Q14289)
How it was run: as §1

PhKγ2(h) = target: T4, PhKγ2(h) (Homo sapiens, UniProt P15735)
T4 sequence (P15735 1-406): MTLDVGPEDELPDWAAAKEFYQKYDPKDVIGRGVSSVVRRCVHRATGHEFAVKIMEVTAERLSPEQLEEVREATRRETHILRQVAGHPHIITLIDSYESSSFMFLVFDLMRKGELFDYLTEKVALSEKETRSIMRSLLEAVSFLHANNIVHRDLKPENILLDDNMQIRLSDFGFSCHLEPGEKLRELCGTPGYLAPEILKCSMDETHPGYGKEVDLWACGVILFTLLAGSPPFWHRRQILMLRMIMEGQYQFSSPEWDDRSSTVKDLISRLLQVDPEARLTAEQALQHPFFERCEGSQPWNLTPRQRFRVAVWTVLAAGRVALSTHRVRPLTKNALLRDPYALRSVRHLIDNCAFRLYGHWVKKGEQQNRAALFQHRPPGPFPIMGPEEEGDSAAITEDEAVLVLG
How it was run: as §1

FGFR1(V561M)(h) = FGFR1(V561M)(h) (Homo sapiens, UniProt P11362, V561M)
How it was run: as §1

FGFR1(h) = FGFR1(h) (Homo sapiens, UniProt P11362)
How it was run: as §1

TrkA(h), sequence (P04629 33-796): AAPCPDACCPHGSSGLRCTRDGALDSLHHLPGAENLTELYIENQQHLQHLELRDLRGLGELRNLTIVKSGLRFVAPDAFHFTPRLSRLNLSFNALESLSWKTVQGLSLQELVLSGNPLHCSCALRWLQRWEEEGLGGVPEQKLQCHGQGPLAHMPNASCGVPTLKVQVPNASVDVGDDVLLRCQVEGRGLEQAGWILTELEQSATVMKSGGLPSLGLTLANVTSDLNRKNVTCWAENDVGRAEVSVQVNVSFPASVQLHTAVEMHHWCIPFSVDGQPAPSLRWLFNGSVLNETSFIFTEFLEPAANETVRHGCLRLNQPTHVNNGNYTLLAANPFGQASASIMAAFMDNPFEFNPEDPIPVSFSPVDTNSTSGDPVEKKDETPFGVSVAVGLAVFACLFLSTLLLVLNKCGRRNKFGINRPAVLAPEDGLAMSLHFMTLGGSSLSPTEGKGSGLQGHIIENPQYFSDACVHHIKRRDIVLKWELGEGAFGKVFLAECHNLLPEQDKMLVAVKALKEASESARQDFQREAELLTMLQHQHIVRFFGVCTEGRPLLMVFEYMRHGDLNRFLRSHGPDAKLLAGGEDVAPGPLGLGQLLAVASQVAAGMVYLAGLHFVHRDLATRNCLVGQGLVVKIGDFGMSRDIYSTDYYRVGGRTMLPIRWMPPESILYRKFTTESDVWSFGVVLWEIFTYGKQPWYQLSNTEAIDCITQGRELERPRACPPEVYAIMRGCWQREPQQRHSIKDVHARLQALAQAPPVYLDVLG
FGFR1(h), sequence (P11362 22-822): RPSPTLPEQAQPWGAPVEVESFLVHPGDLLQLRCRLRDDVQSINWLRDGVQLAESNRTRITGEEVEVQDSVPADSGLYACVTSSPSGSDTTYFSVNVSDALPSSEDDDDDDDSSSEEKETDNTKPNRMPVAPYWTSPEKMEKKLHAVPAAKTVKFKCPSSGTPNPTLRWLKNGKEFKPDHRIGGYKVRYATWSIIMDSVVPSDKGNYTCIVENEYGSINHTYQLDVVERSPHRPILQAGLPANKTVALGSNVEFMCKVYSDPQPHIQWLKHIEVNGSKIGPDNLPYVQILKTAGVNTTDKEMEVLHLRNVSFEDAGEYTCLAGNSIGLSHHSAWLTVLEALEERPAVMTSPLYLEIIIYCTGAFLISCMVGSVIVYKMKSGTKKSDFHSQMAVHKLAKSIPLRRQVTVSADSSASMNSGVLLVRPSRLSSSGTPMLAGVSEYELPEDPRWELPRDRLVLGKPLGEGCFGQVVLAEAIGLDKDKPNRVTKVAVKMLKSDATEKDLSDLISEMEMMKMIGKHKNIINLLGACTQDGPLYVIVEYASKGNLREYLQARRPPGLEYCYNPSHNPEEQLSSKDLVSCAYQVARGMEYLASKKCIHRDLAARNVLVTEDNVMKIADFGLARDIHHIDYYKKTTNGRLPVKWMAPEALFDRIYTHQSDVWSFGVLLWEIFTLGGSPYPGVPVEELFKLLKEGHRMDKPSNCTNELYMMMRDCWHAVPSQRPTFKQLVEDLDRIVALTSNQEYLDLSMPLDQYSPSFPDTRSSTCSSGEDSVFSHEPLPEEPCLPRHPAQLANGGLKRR
FGFR1(V561M)(h), sequence (P11362 22-822 V561M): as the sequence (P11362 22-822) above, with V540M counted along it
Pyk2(h), sequence (Q14289 whole entry): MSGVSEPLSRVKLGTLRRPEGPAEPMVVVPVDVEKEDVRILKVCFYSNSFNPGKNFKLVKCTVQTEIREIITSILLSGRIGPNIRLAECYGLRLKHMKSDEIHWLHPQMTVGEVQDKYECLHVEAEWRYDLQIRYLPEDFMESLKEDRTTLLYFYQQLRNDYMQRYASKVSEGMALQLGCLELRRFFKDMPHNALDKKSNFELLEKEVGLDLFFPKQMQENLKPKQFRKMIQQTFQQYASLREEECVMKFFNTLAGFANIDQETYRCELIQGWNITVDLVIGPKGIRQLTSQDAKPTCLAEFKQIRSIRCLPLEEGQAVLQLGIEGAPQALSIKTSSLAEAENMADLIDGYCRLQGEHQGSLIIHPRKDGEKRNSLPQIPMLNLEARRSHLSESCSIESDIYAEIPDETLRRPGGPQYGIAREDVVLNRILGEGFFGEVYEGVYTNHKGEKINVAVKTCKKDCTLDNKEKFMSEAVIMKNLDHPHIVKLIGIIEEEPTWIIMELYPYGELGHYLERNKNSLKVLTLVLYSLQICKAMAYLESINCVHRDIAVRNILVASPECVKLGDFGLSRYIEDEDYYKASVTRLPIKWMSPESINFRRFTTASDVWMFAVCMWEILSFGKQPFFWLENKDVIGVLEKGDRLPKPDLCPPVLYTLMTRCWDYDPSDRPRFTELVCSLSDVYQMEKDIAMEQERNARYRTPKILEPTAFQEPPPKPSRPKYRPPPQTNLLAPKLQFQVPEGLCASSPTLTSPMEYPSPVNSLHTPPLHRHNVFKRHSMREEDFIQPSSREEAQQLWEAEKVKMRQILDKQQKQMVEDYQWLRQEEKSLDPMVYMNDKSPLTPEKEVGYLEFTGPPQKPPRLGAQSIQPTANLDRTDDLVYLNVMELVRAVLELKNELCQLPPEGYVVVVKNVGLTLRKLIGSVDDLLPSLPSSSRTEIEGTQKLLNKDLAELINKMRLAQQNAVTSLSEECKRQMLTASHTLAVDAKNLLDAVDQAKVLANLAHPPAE

| Sequence | % activity (Mer(h)) [%] | % activity (mTOR(h)) [%] | % activity (BrSK2(h)) [%] | % activity (TrkA(h)) [%] | % activity (Pyk2(h)) [%] | % activity (PhKγ2(h)) [%] | % activity (FGFR1(V561M)(h)) [%] | % activity (FGFR1(h)) [%] |
| --- | --- | --- | --- | --- | --- | --- | --- | --- |
| KAFAKLAARLYRKALARQLGVAA [MMI-0400] | 50 | 93 | 86 | 17 | 34 | 38 | 74 | 59 |
| FAKLAARLYRKALARQLGVAA [MMI-0300] | 52 | 91 | 83 | 25 | 47 | 46 | 74 | 55 |
| YARAAARQARAKALARQLGVAA [MMI-0100] | 47 |  | 129 | 74 |  |  | 108 | 120 |
| HRRIKAWLKKIKALARQLGVAA (Mammal) [MMI-0500] | 17 | 135 | 84 | 24 | 46 | 16 |  | 18 |
| YARAAARQARAKALNRQLGVA (Mammal) [MMI-0200] | 90 | 110 |  |  | 127 | 86 | 72 | 97 |
